Molecular target: the molecule itself
Assay: negative-stain electron microscopy

B1: HIV-1 Rev (natural protein, UniProt P04616 1-116, looked up)
chain: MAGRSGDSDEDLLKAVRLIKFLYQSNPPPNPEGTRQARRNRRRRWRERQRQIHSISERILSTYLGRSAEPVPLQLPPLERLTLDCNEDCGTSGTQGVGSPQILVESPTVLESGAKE
B1: binds.

— publication PMC2180222 (The Journal of Cell Biology, 2000)
